The target in this assay is T1, cyclo[RGDfK] cell adhesive peptide, surface-bound, light-activated from c[RGD(DMNPB)fK].
T1 chain: RGDFK
In words: QCM-D; cells (3 × 10^5 cells/ml) injected over a gold-coated quartz crystal carrying a c[RGD(DMNPB)fK]-terminated PEG-thiol SAM, sedimented in stopped flow, peptide activated in situ by LED (360 nm, 1.35 mW cm^-2, 30 s); Δf1 = frequency drop within the first minute after irradiation; 37°C, PBS; also with 10 μM cytochalasin D or 10 μM anti-αVβ3 antibody. As to conditions: remark: other sources report otherwise.

B1: integrin αVβ3 on human umbilical vein endothelial cells (HUVEC), P06756 31-1048; P05106 27-788 (receptor)
chain 1: FNLDVDSPAEYSGPEGSYFGFAVDFFVPSASSRMFLLVGAPKANTTQPGIVEGGQVLKCDWSSTRRCQPIEFDATGNRDYAKDDPLEFKSHQWFGASVRSKQDKILACAPLYHWRTEMKQEREPVGTCFLQDGTKTVEYAPCRSQDIDADGQGFCQGGFSIDFTKADRVLLGGPGSFYWQGQLISDQVAEIVSKYDPNVYSIKYNNQLATRTAQAIFDDSYLGYSVAVGDFNGDGIDDFVSGVPRAARTLGMVYIYDGKNMSSLYNFTGEQMAAYFGFSVAATDINGDDYADVFIGAPLFMDRGSDGKLQEVGQVSVSLQRASGDFQTTKLNGFEVFARFGSAIAPLGDLDQDGFNDIAIAAPYGGEDKKGIVYIFNGRSTGLNAVPSQILEGQWAARSMPPSFGYSMKGATDIDKNGYPDLIVGAFGVDRAILYRARPVITVNAGLEVYPSILNQDNKTCSLPGTALKVSCFNVRFCLKADGKGVLPRKLNFQVELLLDKLKQKGAIRRALFLYSRSPSHSKNMTISRGGLMQCEELIAYLRDESEFRDKLTPITIFMEYRLDYRTAADTTGLQPILNQFTPANISRQAHILLDCGEDNVCKPKLEVSVDSDQKKIYIGDDNPLTLIVKAQNQGEGAYEAELIVSIPLQADFIGVVRNNEALARLSCAFKTENQTRQVVCDLGNPMKAGTQLLAGLRFSVHQQSEMDTSVKFDLQIQSSNLFDKVSPVVSHKVDLAVLAAVEIRGVSSPDHVFLPIPNWEHKENPETEEDVGPVVQHIYELRNNGPSSFSKAMLHLQWPYKYNNNTLLYILHYDIDGPMNCTSDMEINPLRIKISSLQTTEKNDTVAGQGERDHLITKRDLALSEGDIHTLGCGVAQCLKIVCQVGRLDRGKSAILYVKSLLWTETFMNKENQNHSYSLKSSASFNVIEFPYKNLPIEDITNSTLVTTNVTWGIQPAPMPVPVWVIILAVLAGLLLLAVLVFVMYRMGFFKRVRPPQEEQEREQLQPHENGEGNSET
chain 2: GPNICTTRGVSSCQQCLAVSPMCAWCSDEALPLGSPRCDLKENLLKDNCAPESIEFPVSEARVLEDRPLSDKGSGDSSQVTQVSPQRIALRLRPDDSKNFSIQVRQVEDYPVDIYYLMDLSYSMKDDLWSIQNLGTKLATQMRKLTSNLRIGFGAFVDKPVSPYMYISPPEALENPCYDMKTTCLPMFGYKHVLTLTDQVTRFNEEVKKQSVSRNRDAPEGGFDAIMQATVCDEKIGWRNDASHLLVFTTDAKTHIALDGRLAGIVQPNDGQCHVGSDNHYSASTTMDYPSLGLMTEKLSQKNINLIFAVTENVVNLYQNYSELIPGTTVGVLSMDSSNVLQLIVDAYGKIRSKVELEVRDLPEELSLSFNATCLNNEVIPGLKSCMGLKIGDTVSFSIEAKVRGCPQEKEKSFTIKPVGFKDSLIVQVTFDCDCACQAQAEPNSHRCNNGNGTFECGVCRCGPGWLGSQCECSEEDYRPSQQDECSPREGQPVCSQRGECLCGQCVCHSSDFGKITGKYCECDDFSCVRYKGEMCSGHGQCSCGDCLCDSDWTGYYCNCTTRTDTCMSSNGLLCSGRGKCECGSCVCIQPGSYGDTCEKCPTCPDACTFKKECVECKKFDRGALHDENTCNRYCRDEIESVKELKDTGKDAVNCTYKNEDDCVVRFQYYEDSSGKSILYVVEEPECPKGPDILVVLLSVMGAILLIGLAALLIWKLLITIHDRKEFAKFEEERARAKWDTANNPLYKEATSTFTNITYRGT
modifications: here or on the partner: cyclic peptide (cyclo); f = D-phenylalanine
Turning to B1, the Δf1 is 0.966 Hz.

B2: integrin αVβ3 on stable OV-MZ-6 cell transfectants overexpressing integrin αVβ3, P06756 31-1048; P05106 27-788 (receptor)
chain 1: B1 chain 1
chain 2: B1 chain 2
modifications: here or on the partner: cyclic peptide (cyclo); f = D-phenylalanine
In turn, B2 came in with a Δf1 of 0.913 Hz.
